Abundance fitness data for 52 variants are collected here from the Human Domainome abundance scans (Beltran et al. 2025).

First the molecules themselves.
B1: Zinc finger MYM-type protein 3, residues 405 to 444; numbered along this chain, Q14202 (parent)
chain: DATRCSICQKTGEVLHEVSNGSVVHRLCSDSCFSKFRANK
B2: Kinesin-like protein KIF16B, residues 1213 to 1273; numbered along this chain, Q96L93 (parent)
chain: ETWTVFRRYSRFREMHKTLKLKYAELAALEFPPKKLFGNKDERVIAERRSHLEKYLRDFFS

± gives the uncertainty stated by the source.

Variants of B1 are the subject of the first data set. The data set can be described thus: abundance fitness (aPCA) (normalised: wild type 0, dead -1); higher = more abundant; growth selection in yeast, the domain comes from the species named. To be noted: Homo sapiens.
With DATRCSICQKTGEVLHEVSNGSVVHRLCSDSCFSKFRANV [K40V], the abundance fitness worked out at 0.112 ± 0.1.

On to DATRCSICQKTGEVLHEVSNGSVVHRLCSDSCFSKFRANP [K40P], for which the abundance fitness was -0.12 ± 0.17. Same read-out and setting: in the case of DATRCSICQKTGEVLHEVSNGSVVHRLCSDSCFSKFRANF [K40F] it was -0.128 ± 0.15; in that of DATRCSICQKTGEVLHEVSNGSVVHRLCSDSCFSKFRANI [K40I], 0.012 ± 0.072; in that of DATRCSICQKTGEVLHEVSNGSVVHRLCSDSCFSKFRANG [K40G], 0.211 ± 0.064. Same read-out and setting: in the case of DATRCSICQKTGEVLHEVSNGSVVHRLCSDSCFSKFRANR [K40R] it was 0.023 ± 0.068; in that of DATRCSICQKTGEVLHEVSNGSVVHRLCSDSCFSKFRANY [K40Y], -0.072 ± 0.45. On the same count and under the same terms, in the case of DATRCSICQKTGEVLHEVSNGSVVHRLCSDSCFSKFRANH [K40H] it was 0.222 ± 0.08; in that of DATRCSICQKTGEVLHEVSNGSVVHRLCSDSCFSKFRANA [K40A], -0.047 ± 0.11; in that of DATRCSICQKTGEVLHEVSNGSVVHRLCSDSCFSKFRANT [K40T], 0.138 ± 0.066. Consider DATRCSICQKTGEVLHEVSNGSVVHRLCSDSCFSKFRANS [K40S], for which the abundance fitness was determined as 0.119 ± 0.086.

As to DATRCSICQKTGEVLHEVSNGSVVHRLCSDSCFSKFRANC [K40C], the abundance fitness came to 0.205 ± 0.16.

Turning to DATRCSICQKTGEVLHEVSNGSVVHRLCSDSCFSKFRANE [K40E], the abundance fitness stood at 0.077 ± 0.09. Consider DATRCSICQKTGEVLHEVSNGSVVHRLCSDSCFSKFRANW [K40W], for which the abundance fitness was -0.116 ± 0.14.

In the case of DATRCSICQKTGEVLHEVSNGSVVHRLCSDSCFSKFRANL [K40L], the abundance fitness is -0.095 ± 0.11. The same measure, in the same setting: then DATRCSICQKTGEVLHEVSNGSVVHRLCSDSCFSKFRANN [K40N], with 0.15 ± 0.13; and DATRCSICQKTGEVLHEVSNGSVVHRLCSDSCFSKFRAVK [N39V], with 0.058 ± 0.066; and DATRCSICQKTGEVLHEVSNGSVVHRLCSDSCFSKFRASK [N39S], with 0.003 ± 0.067. Still for that read-out and setting: in the case of DATRCSICQKTGEVLHEVSNGSVVHRLCSDSCFSKFRAWK [N39W] it was -0.192 ± 0.076; in that of DATRCSICQKTGEVLHEVSNGSVVHRLCSDSCFSKFRAPK [N39P], 0.043 ± 0.073; in that of DATRCSICQKTGEVLHEVSNGSVVHRLCSDSCFSKFRALK [N39L], 0.037 ± 0.065.

For DATRCSICQKTGEVLHEVSNGSVVHRLCSDSCFSKFRAKK [N39K], the abundance fitness was determined as 0.167 ± 0.083. Same read-out and setting: then DATRCSICQKTGEVLHEVSNGSVVHRLCSDSCFSKFRAQK [N39Q], with 0.29 ± 0.078; and DATRCSICQKTGEVLHEVSNGSVVHRLCSDSCFSKFRARK [N39R], with 0.081 ± 0.055. As for DATRCSICQKTGEVLHEVSNGSVVHRLCSDSCFSKFRAMK [N39M], the abundance fitness is 0.048 ± 0.07.

As to DATRCSICQKTGEVLHEVSNGSVVHRLCSDSCFSKFRATK [N39T], the abundance fitness stood at 0.112 ± 0.065.

A further data set covers variants of B2. Described as above. The settings on record: Homo sapiens.
As for VTWTVFRRYSRFREMHKTLKLKYAELAALEFPPKKLFGNKDERVIAERRSHLEKYLRDFFS [E1V], the abundance fitness is -0.846 ± 0.21. Same read-out and setting: in the case of LTWTVFRRYSRFREMHKTLKLKYAELAALEFPPKKLFGNKDERVIAERRSHLEKYLRDFFS [E1L] it was -0.75 ± 0.38; in that of KTWTVFRRYSRFREMHKTLKLKYAELAALEFPPKKLFGNKDERVIAERRSHLEKYLRDFFS [E1K], -0.26 ± 0.14; in that of WTWTVFRRYSRFREMHKTLKLKYAELAALEFPPKKLFGNKDERVIAERRSHLEKYLRDFFS [E1W], -0.421 ± 0.27. As for NTWTVFRRYSRFREMHKTLKLKYAELAALEFPPKKLFGNKDERVIAERRSHLEKYLRDFFS [E1N], the abundance fitness is -0.153 ± 0.42.

DTWTVFRRYSRFREMHKTLKLKYAELAALEFPPKKLFGNKDERVIAERRSHLEKYLRDFFS [E1D]: the abundance fitness is -0.001 ± 0.12. GTWTVFRRYSRFREMHKTLKLKYAELAALEFPPKKLFGNKDERVIAERRSHLEKYLRDFFS [E1G]: the abundance fitness was -0.62 ± 0.39. Still for that read-out and setting: then MTWTVFRRYSRFREMHKTLKLKYAELAALEFPPKKLFGNKDERVIAERRSHLEKYLRDFFS [E1M], with -0.343 ± 0.48.

Turning to ECWTVFRRYSRFREMHKTLKLKYAELAALEFPPKKLFGNKDERVIAERRSHLEKYLRDFFS [T2C], the abundance fitness is -0.5 ± 0.47. EVWTVFRRYSRFREMHKTLKLKYAELAALEFPPKKLFGNKDERVIAERRSHLEKYLRDFFS [T2V]: the abundance fitness is -0.165 ± 0.14. The same measure, in the same setting: then ENWTVFRRYSRFREMHKTLKLKYAELAALEFPPKKLFGNKDERVIAERRSHLEKYLRDFFS [T2N], with -0.286 ± 0.14.

On to EAWTVFRRYSRFREMHKTLKLKYAELAALEFPPKKLFGNKDERVIAERRSHLEKYLRDFFS [T2A], for which the abundance fitness was -0.687 ± 0.3.

In the case of EIWTVFRRYSRFREMHKTLKLKYAELAALEFPPKKLFGNKDERVIAERRSHLEKYLRDFFS [T2I], the abundance fitness was determined as 0.085 ± 0.12. Take EEWTVFRRYSRFREMHKTLKLKYAELAALEFPPKKLFGNKDERVIAERRSHLEKYLRDFFS [T2E]: the abundance fitness is -0.18 ± 0.24. Still for that read-out and setting: then ELWTVFRRYSRFREMHKTLKLKYAELAALEFPPKKLFGNKDERVIAERRSHLEKYLRDFFS [T2L], with 0.274 ± 0.19. On to EWWTVFRRYSRFREMHKTLKLKYAELAALEFPPKKLFGNKDERVIAERRSHLEKYLRDFFS [T2W], for which the abundance fitness is -0.146 ± 0.096. On the same count and under the same terms, then EGWTVFRRYSRFREMHKTLKLKYAELAALEFPPKKLFGNKDERVIAERRSHLEKYLRDFFS [T2G], with -0.721 ± 0.28; and EPWTVFRRYSRFREMHKTLKLKYAELAALEFPPKKLFGNKDERVIAERRSHLEKYLRDFFS [T2P], with 0.047 ± 0.094; and EMWTVFRRYSRFREMHKTLKLKYAELAALEFPPKKLFGNKDERVIAERRSHLEKYLRDFFS [T2M], with -0.538 ± 0.09. Same read-out and setting: in the case of EYWTVFRRYSRFREMHKTLKLKYAELAALEFPPKKLFGNKDERVIAERRSHLEKYLRDFFS [T2Y] it was -0.352 ± 0.42; in that of ESWTVFRRYSRFREMHKTLKLKYAELAALEFPPKKLFGNKDERVIAERRSHLEKYLRDFFS [T2S], -0.523 ± 0.12.

In the case of EQWTVFRRYSRFREMHKTLKLKYAELAALEFPPKKLFGNKDERVIAERRSHLEKYLRDFFS [T2Q], the abundance fitness was -0.541 ± 0.27.

Take EKWTVFRRYSRFREMHKTLKLKYAELAALEFPPKKLFGNKDERVIAERRSHLEKYLRDFFS [T2K]: the abundance fitness was -0.409 ± 0.14.

Turning to ETCTVFRRYSRFREMHKTLKLKYAELAALEFPPKKLFGNKDERVIAERRSHLEKYLRDFFS [W3C], the abundance fitness was -0.761 ± 0.39.

For ETDTVFRRYSRFREMHKTLKLKYAELAALEFPPKKLFGNKDERVIAERRSHLEKYLRDFFS [W3D], the abundance fitness was -0.022 ± 0.12. The same measure, in the same setting: in the case of ETATVFRRYSRFREMHKTLKLKYAELAALEFPPKKLFGNKDERVIAERRSHLEKYLRDFFS [W3A] it was -0.66 ± 0.14.
